Results reported in patent publication US20160287682.

System: Notch1, overexpressed in 293T cells

Adamts1, V5 tagged, overexpressed in 293T cells
S2 cleavage of Notch1: Adamts1 blocks S2 cleavage of Notch1
